Data on four molecules can be found in patent US20260137822A1.

The target in test [1] is human FOLR1 (recombinant antigen) (human) (UniProt P15328). As to the kind of experiment: ELISA on hFOLR1. On the technique in general: In an ELISA, binding on a coated surface is turned into a signal by an enzyme label.
The next test concerns the target FOLR1 on OVCAR3 cells (UniProt P15328). Nature of the test: cell binding to FOLR1-positive OVCAR3 cells.
Test [2] has as its target human FOLR1 (recombinant antigen) (human) (UniProt P15328). Nature of the test: BLI (Octet), construct captured on AHC biosensor, hFOLR1 as analyte.
The target of test [3] is FOLR1 on cells (OVCAR3, OV-90) (UniProt P15328). As to the kind of experiment: flow cytometry on FOLR1 expressing OV-90 cells, Geomeans RL1-H against Conc (nM) [top panel]. Background: A flow cytometer gives signals particle by particle.
FOLR1 on cells (OVCAR3, OV-90), sequence (P15328 25-234): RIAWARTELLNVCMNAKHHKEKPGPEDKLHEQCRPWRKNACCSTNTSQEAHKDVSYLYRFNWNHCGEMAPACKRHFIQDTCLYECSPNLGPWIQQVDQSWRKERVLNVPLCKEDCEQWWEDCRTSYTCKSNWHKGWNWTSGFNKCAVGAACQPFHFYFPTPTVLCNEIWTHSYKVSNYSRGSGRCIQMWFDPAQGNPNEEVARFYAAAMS

What is called EC50 is the concentration that produces a half-maximal response. Broadly, the Kd is the equilibrium constant for the complex coming apart. As a reminder, the koff is the rate constant with which the complex falls apart. As usually defined, the kon is the second-order rate constant of association. What is called EC50 (read off the curve) is the concentration at which the effect is half-maximal. A higher EC50 (read off the curve) goes with a need for much substance.

FOLR1 on OVCAR3 cells, sequence (P15328 25-234): as above
human FOLR1 (recombinant antigen) (human), sequence (P15328 25-234 limits assumed): as the sequence (P15328 25-234) above

B1: Anti-FOLR1x4 GGSx3 (monospecific tetravalent VHH-VHH-Fc) (antibody, part only; not given: hinge and wild-type Fc, not shown: a dimerising Fc or GST)
chain, part: QVQLVESGGGLVQPGGSLRLSCAASGFTVSNSVMAWYRQTPGNEREFVAIINSIGITNYADSVKGRFTISRDNSKNTLYLQMNSLRAEDTAVYVCNRNFDRIYWGQGTLVTVSSGGSGGSGGSQVQLVESGGGLVQPGGSLRLSCAASGFTVSNSVMAWYRQTPGNEREFVAIINSIGITNYADSVKGRFTISRDNSKNTLYLQMNSLRAEDTAVYVCNRNFDRIYWGQGTLVTVSS
Regarding B1, in test [1], the concentration for a half-maximal effect (EC50) was 0.11 nM. In addition, in the test with FOLR1 on OVCAR3 cells, the EC50 was 0.49 nM. Besides, in test [2], the Kd came out at 2.52 nM, the koff is 0.00087 s⁻¹ and the kon stood at 345000 M⁻¹ s⁻¹.

B2: Anti-FOLR1x4 GGGGSx3 (monospecific tetravalent VHH-VHH-Fc) (antibody, part only; not given: hinge and wild-type Fc, not shown: a dimerising Fc or GST)
chain, part: QVQLVESGGGLVQPGGSLRLSCAASGFTVSNSVMAWYRQTPGNEREFVAIINSIGITNYADSVKGRFTISRDNSKNTLYLQMNSLRAEDTAVYVCNRNFDRIYWGQGTLVTVSSGGGGSGGGGSGGGGSQVQLVESGGGLVQPGGSLRLSCAASGFTVSNSVMAWYRQTPGNEREFVAIINSIGITNYADSVKGRFTISRDNSKNTLYLQMNSLRAEDTAVYVCNRNFDRIYWGQGTLVTVSS
As for B2, in test [1], the EC50 is 0.12 nM. Besides, the concentration for a half-maximal effect (EC50) with FOLR1 on OVCAR3 cells came out at 0.28 nM. Moreover, in test [2], the Kd came out at 2.86 nM, the koff was 0.000953 s⁻¹ and the kon was determined as 333000 M⁻¹ s⁻¹.

B3: Anti-FOLR1x4 GGSx4 (monospecific tetravalent VHH-VHH-Fc) (antibody, part only; not given: hinge and wild-type Fc, not shown: a dimerising Fc or GST)
chain, part: QVQLVESGGGLVQPGGSLRLSCAASGFTVSNSVMAWYRQTPGNEREFVAIINSIGITNYADSVKGRFTISRDNSKNTLYLQMNSLRAEDTAVYVCNRNFDRIYWGQGTLVTVSSGGSGGSGGSGGSQVQLVESGGGLVQPGGSLRLSCAASGFTVSNSVMAWYRQTPGNEREFVAIINSIGITNYADSVKGRFTISRDNSKNTLYLQMNSLRAEDTAVYVCNRNFDRIYWGQGTLVTVSS
For the molecule B3, the concentration for a half-maximal effect (EC50) in test [1] was 0.14 nM. For the same molecule, the concentration for a half-maximal effect (EC50) with FOLR1 on OVCAR3 cells came to 0.81 nM. In test [2], the Kd was found to be 2.85 nM, the off-rate (koff) came to 0.000853 s⁻¹ and the kon was determined as 299000 M⁻¹ s⁻¹.

B4: Farletuzumab (antibody, INN chains, looked up, V domains shown)
VH: EVQLVESGGGVVQPGRSLRLSCSASGFTFSGYGLSWVRQAPGKGLEWVAMISSGGSYTYYADSVKGRFAISRDNAKNTLFLQMDSLRPEDTGVYFCARHGDDPAWFAYWGQGTPVTVSS
VL: DIQLTQSPSSLSASVGDRVTITCSVSSSISSNNLHWYQQKPGKAPKPWIYGTSNLASGVPSRFSGSGSGTDYTFTISSLQPEDIATYYCQQWSSYPYMYTFGQGTKVEIKR
As for B4, the 50% effective concentration (EC50) in test [1] stood at 0.12 nM; with FOLR1 on OVCAR3 cells, 0.71 nM. The EC50 (read off the curve) in test [3] amounted to 2 nM.
